Experimental data reported in patent US20250205362A1, “LIPID NANOPARTICLES” (NATIONAL UNIVERSITY CORPORATION HOKKAIDO UNIVERSITY, priority 2022, published 2025).

What was measured:
TTR gene [1] = assay: Measurement of TTR-KO activity (serum TTR protein, ELISA); format: in vivo, mouse
Procedure, shortened: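 Female BALB/c mice (4 weeks) received Cas9/sgTTR-RNP-loaded lipid nanoparticles i.v. at the indicated doses. Serum TTR protein measured by ELISA one week later. TTR-KO activity expressed as serum TTR (%) relative to untreated mice set at 100%.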

[2] = pKa of lipid nanoparticles (TNS); conditions: apparent pKa of Fluc mRNA-loaded LNP; 50/10/40/1.5 mol%; Table 5
Method: The pKa of the lipid nanoparticles was measured using p-Toluenesulfonic acid (TNS). First, TNS (final concentration: 0.75 μM) and lipid nanoparticles (final concentration: 30 μM) were mixed in buffer solutions (200 mL) adjusted to various pH values (pH 3.5 to 9.5). The buffer solutions used were: 20 mM citrate buffer solution, 20 mM sodium phosphate buffer solution, or 20 mM Tris-HCl buffer solution containing 130 mM NaCl. The fluorescence intensity of the prepared mixture was measured using a spectrofluorometer (VarioskanLux, Thermo Fisher Scientific) at the setting of λex=321 nm and λem=447 nm. The highest and lowest measured values were taken as 100% and 0% charge rate, respectively, and the pH showing a 50% charge rate was calculated as the apparent pKa. The percentage of the contained cationically charged pH-sensitive cationic lipid was calculated using the Henderson-Hasselbalch equation.

BALB/c mice = assay: Measurement of Fluc activity in tissues after iv Fluc mRNA-loaded lipid nanoparticles; format: in vivo, mouse; conditions: Example 1, FIG. 1; Fluc mRNA-loaded LNP 50/10/40/1.5; Balb/c mice iv 0.01 mg mRNA/kg, 6 hours
Method: First, lipid nanoparticles encapsulating Fluc mRNA (Fluc mRNA-loaded lipid nanoparticles) were intravenously injected into BALB/c mice (female, 4 weeks old) at a dose of 0.01 mg mRNA/kg body weight. Six hours after intravenous injection, the mice were euthanized, and each tissue was collected, frozen in liquid nitrogen, and stored at −80° C. The tissues were homogenized in passive lysis buffer (Promega) using a bead cell disrupter (Micro Smash MS-100R, TOMY Seiko). Tissue debris was removed by centrifugation and the supernatant was collected. Fluc activity in the supernatant was measured using a luciferase assay system (E1500, Promega) according to the manufacturer's protocol. Luminescence was measured using a luminometer (Luminescencer-PSN, ATTO). The protein concentration was determined using a commercially available measurement kit (BCA Protein Assay Kit, Pierce). Fluc activity was expressed as relative light units (RLU) per mg of protein.

[3] = Average particle diameter, PdI and zeta potential of lipid nanoparticles (dynamic light scattering); format: physicochemical
Method: The mean particle diameter (number average value), ζ-mean particle diameter, and polydispersity index (PdI) of the lipid nanoparticles in PBS(−) (pH 7.4), as well as the zeta potential in 10 mM HEPES buffer (pH 7.4), were measured using an analyzing device, Zetasizer Nano ZS ZEN3600 (Malvern), which utilizes dynamic light scattering.

[4] = Encapsulation rate of lipid nanoparticles (Ribogreen); format: physicochemical
Method: The encapsulation rate of the lipid nanoparticles was calculated by measuring the amount of encapsulated nucleic acid (the amount of ssODN in the case of RNP-ssODN) using an RNA intercalator Ribogreen (manufactured by Life Technologies).

[5] = Evaluation of biodistribution (fluorescently labeled RNP-ssODN); format: in vivo, mouse; conditions: mice iv 2 mg RNP/kg, 1 hour; labeled TTR-RNP-ssODN in CL4H6 LNP (ssODN(−): free RNP, no LNP)
Method: For fluorescent labeling of lipid nanoparticles, the RNP-ssODN solution described above was mixed with a three-fold molar amount of a fluorescent molecule (DyLight 650 NHS ester) in DMSO and incubated for 30 min at ambient temperature in the dark. Unreacted fluorescent molecules were removed by ultrafiltration (Amicon Ultra-0.5, MWCO 3 kDa, Millipore).
Lipid nanoparticles encapsulating the obtained fluorescently labeled RNP-ssODN (fluorescently labeled RNP-ssODN-loaded lipid nanoparticles) were intravenously injected into BALB/c mice (female, 4 weeks old) at 2 mg RNP/kg body weight. One hour after intravenous injection, the mice were euthanized and various tissues, including blood, were collected. The collected blood was immediately diluted with 1% sodium dodecyl sulfate (SDS) solution. The collected tissues were immediately weighed and then homogenized in 1% sodium dodecyl sulfate (SDS) solution. The resulting homogenates were transferred to a black 96-well plate, and fluorescence was measured using a microplate reader (VarioskanLux, Thermo Fisher Scientific) at settings of λex=652 nm and λem=672 nm. Calibration curves were generated using fluorescently labeled RNP-ssODN-loaded lipid nanoparticles and blood or tissue homogenates similarly prepared from untreated mice. Biodistribution was expressed as the percentage of injected dose per tissue or blood (% injected dose).

TTR gene [6] = assay: T7E1 assay on liver genomic DNA; format: in vivo, mouse; conditions: 2 mg RNP/kg iv two consecutive days, one week after final injection, CL4H6 LNP, n=3
Method: Lipid nanoparticles encapsulating TTR-RNP-ssODN complexes (TTR-RNP-ssODN-loaded lipid nanoparticles) were intravenously injected to BALB/c mice (female, 4 weeks old) at 2 mg RNP/kg body weight for two consecutive days. One week after the last injection, the mice were euthanized and liver tissues were harvested, flash frozen in liquid nitrogen, and stored at −80° C.
Genomic DNA was extracted and purified from the collected liver tissue using a commercially available nucleic acid extraction kit (NucleoSpin Tissue, MACHEREY-NAGEL) according to the manufacturer's protocol.
The T7E1 assay was performed using a commercially available genome editing detection kit (Alt-R®, Integrated DNA Technologies). The dsDNA treated with T7E1 was subjected to agarose gel electrophoresis in the same manner as in the above described <Measurement of In vitro DNA Cleavage Activity>, and the gel after electrophoresis was stained and the bands were quantified.

dsDNA from the TTR locus = assay: In vitro DNA cleavage activity; format: biochemical, mouse; conditions: n=3
Text: Genomic DNA was collected and purified from BALB/c mouse liver tissue using a commercially available nucleic acid extraction kit (NucleoSpin Tissue, MACHEREY-NAGEL) according to the manufacturer's protocol.
The dsDNA from the TTR locus was amplified by PCR (using KAPA HiFi HotStart DNA polymerase (KAPA Biosystems)) using the genomic DNA as a template and the primer set shown in Table 4, and purified using a commercially available nucleic acid purification kit (ISOSPIN PCR Product, Nippon Gene).
The ssODN (5 equivalents relative to […]) was added to Cas9/sgTTR-RNP to form a TTR-RNP-ssODN complex. […] The reaction solution was then heated at 65° C. for 5 minutes to inactivate Cas9-RNP, and the dsDNA was then subjected to electrophoresis on a 3% agarose gel at 100 V for 40 minutes. After electrophoresis, the gel was stained (GelRed, Biotium) and visualized using a fluorescent/visible light gel imaging system (Printgraph CMOS I, ATTO). Bands were quantified using image analysis software (ImageJ).
DNA cleavage was calculated using the following formula: in the formula, Int_full and Int_cleaved indicate the intensities derived from full length (uncleaved) and cleaved DNA, respectively.

[7] = Fluc mRNA-loaded LNP, cationic lipid/DSPC/cholesterol/PEG-DMG 50/10/40/1.5 mol%, Table 5
[8] = TTR-RNP-ssODN-loaded LNP (ssODN-TTR_3-40%), cationic lipid/DSPC/cholesterol/PEG-DMG 50/10/40/3.5 mol%, Table 8
[9] = TTR-KO activity in mice, TTR-RNP-ssODN-loaded LNP CL4H6/DSPC/cholesterol/PEG-DMG 50/10/40/3.5 mol%, sgTTR-G211 (TTR_3) or sgTTR-G269 (TTR_4)
[10] = TTR-RNP-ssODN-loaded LNP, sgTTR-G211, CL4H6/DSPC/cholesterol/PEG-DMG 50/10/40/3.5 mol%, Table 11

With CCCCCC(CCCCC)CC(=O)OCCCCCCC(O)(CCCCCCOC(=O)CC(CCCCC)CCCCC)CCCCN(CCC)CCC [CL4F8-b-5, 7-(4-(dipropylamino)butyl)-7-hydroxytridecane-1,13-diylbis(3-pentyloctanoate)] the “serum TTR activity / gene knockout versus CL4F6” value (TTR gene [1]; FIG. 5, TTR-RNP-ssODN-loaded LNP, mouse serum 7 days after administration) was “lower serum TTR activity and higher gene knockout”, the pKa [2] was 6.25 and the “Fluc activity (gene transfer ability) in liver and spleen” value (BALB/c mice) was “equal to or greater than that of CL4F6”. It also gave a Number-average particle diameter [3, 7] of 68.7 nm, a PdI [3, 7] of 0.185 and a ζ-average [3, 7] of 106.3 nm. It also gave a ζ-potential [3, 7] of −5.16 mV, a Number-average particle diameter [3, 8] of 127.5 nm and a PdI [3, 8] of 0.128. The ζ-average [3, 8] was 178.0 nm, the ζ-potential [3, 8] was −0.95 mV and the Encapsulation rate [4, 7] was 91.0%. It also gave an Encapsulation rate [4, 8] of 60.2%.

B1: ssODN-TTR_3-40%: ssODN pairing with sgTTR-G211, 40% matched; SEQ ID NO 7 (nucleic acid)
DNA: AAAAAAAAAAAAAAAAAAAAAAAAAAAAAAAAAAAAAAAAAAAAAAAAAAAAAAAAAAAAAAAGACGTGGAAAATTAAAAAAAAAAAAAAAAAAAAAAAAAAAAAAAAAAAAAAAAAAAAAAAAAAAAAAAA
With B1 the “reduction of serum TTR protein concentration compared to untreated mice” value (TTR gene [1]; 2 mg RNP/kg iv two consecutive days, one week after final injection, CL4H6 LNP) was 81%, the “serum TTR activity / gene knockout activity” value (TTR gene [1]; FIG. 23, CL4H6 LNP prepared at 4° C., 2.0 mg RNP/kg, 7 days) was “low serum TTR activity, exhibiting sufficient gene knockout activity” and the “KO (%) 1st test” value (TTR gene [1]; [9]) was 47.8%. For the same molecule, the “KO (%) 2nd test” value (TTR gene [1]; [9]) was 56.5%, the “TTR-KO activity (ranking among ssODNs)” value (TTR gene [1]; Table 10, CL4H6 LNP, per sgRNA) was “highest TTR-KO activity” and the ID %/tissue blood [5] was 7.57 ID %/tissue. For the same molecule, the ID %/tissue kidney [5] was 0.14 ID %/tissue, the ID %/tissue liver [5] was 42.28 ID %/tissue and the ID %/tissue lung [5] was 0.26 ID %/tissue. The ID %/tissue spleen [5] was 3.49 ID %/tissue, the “KO activity at the DNA level” value (TTR gene [6]) was 27% and the Number-average particle diameter [3, 10] was 85.5 nm. It also gave a PdI [3, 10] of 0.094, a ζ-average [3, 10] of 120.1 nm and a ζ-potential [3, 10] of 2.54 mV. For the same molecule, the Encapsulation rate [4, 10] was 86.0%, the “in vitro DNA cleavage activity” value (dsDNA from the TTR locus; FIG. 7, TTR-RNP-ssODN, sgTTR-G211, 37° C. 30 min) was “about the same as that of TTR-RNP-ssODN containing ssODN-TTR_3-0%” and the “relative DNA cleavage activity at 37° C.” value (dsDNA from the TTR locus; FIG. 22(A), sgTTR-G211 RNP, activity without ssODN = 100%) was “about the same as that of the RNP containing ssODN-TTR_3-0%”. The “relative DNA cleavage activity at 15° C.” value (dsDNA from the TTR locus; FIG. 22(B), sgTTR-G211 RNP, activity without ssODN = 100%) was “higher than that of RNP containing ssODN-TTR_3-80%, but was clearly lower than that of RNP containing ssODN-TTR_3-0%”.
